The record followed here is US20230129812A1, “COMPOSITIONS AND METHODS FOR TREATING PULMONARY HYPERTENSION” (Acceleron Pharma Inc., priority 2020, published 2023).

The test concerns the target T1, GDF11 (Homo sapiens, UniProt O95390).
T1 sequence (O95390 299-407): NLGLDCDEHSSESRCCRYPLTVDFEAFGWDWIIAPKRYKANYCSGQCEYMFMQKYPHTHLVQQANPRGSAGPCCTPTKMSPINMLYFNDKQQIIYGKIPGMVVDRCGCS
Nature of the test: A-204 reporter gene assay, pGL3(CAGA)12 luciferase. Format: cell-based. The conditions noted are these: A-204 reporter gene assay. In a few lines: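 Human rhabdomyosarcoma A-204 cells transfected with SMAD-responsive pGL3(CAGA)12 luciferase reporter (optionally with pRLCMV). Ligand in medium + 0.1% BSA, preincubated ~1 h with Fc-fusion inhibitor before addition to cells; after ~6 h cells lysed and luciferase activity measured.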

B1: ALK4-Fc:ActRIIB-Fc heterodimer: heteromeric complex of extracellular domains of human ActRIIB and human ALK4, each separately fused to an Fc domain with a linker (protein)
chain 1: GRGEAETRECIYYNANWELERTNQSGLERCEGEQDKRLHCYASWRNSSGTIELVKKGCWLDDFNCYDRQECVATEENPQVYFCCCEGNFCNERFTHLPEAGGPEVTYEPPPTAPTGGGTHTCPPCPAPELLGGPSVFLFPPKPKDTLMISRTPEVTCVVVDVSHEDPEVKFNWYVDGVEVHNAKTKPREEQYNSTYRVVSVLTVLHQDWLNGKEYKCKVSNKALPAPIEKTISKAKGQPREPQVYTLPPSRKEMTKNQVSLTCLVKGFYPSDIAVEWESNGQPENNYKTTPPVLKSDGSFFLYSKLTVDKSRWQQGNVFSCSVMHEALHNHYTQKSLSLSPGK
chain 2: SGPRGVQALLCACTSCLQANYTCETDGACMVSIFNLDGMEHHVRTCIPKVELVPAGKPFYCLSSEDLRNTHCCYTDYCNRIDLRVPSGHLKEPEHPSMWGPVETGGGTHTCPPCPAPELLGGPSVFLFPPKPKDTLMISRTPEVTCVVVDVSHEDPEVKFNWYVDGVEVHNAKTKPREEQYNSTYRVVSVLTVLHQDWLNGKEYKCKVSNKALPAPIEKTISKAKGQPREPQVYTLPPSREEMTKNQVSLTCLVKGFYPSDIAVEWESNGQPENNYDTTPPVLDSDGSFFLYSDLTVDKSRWQQGNVFSCSVMHEALHNHYTQKSLSLSPG
For the molecule B1, the “inhibition of GDF11 signaling” value is listed as “potent inhibitors”.
